Test results from publication doi:10.1101/2025.11.24.690153.
Where two headings read alike, the source gives them in different places. Each block holds one molecule with its values, some of them ahead of it.

Key:
[1] = target: T1, GtComGD (Geobacillus thermodenitrificans, UniProt A0ABY9Q9R4 29-145); test: EMSA
T1 sequence: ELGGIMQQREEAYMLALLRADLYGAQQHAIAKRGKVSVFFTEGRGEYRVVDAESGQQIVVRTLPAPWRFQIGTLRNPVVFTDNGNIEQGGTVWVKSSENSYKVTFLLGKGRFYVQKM

[2] = target: T1, GtComGD; test: BLI
[3] = target: Geobacillus thermodenitrificans His-MBP-ComGC (Geobacillus thermodenitrificans); test: SEC
[4] = target: Geobacillus thermodenitrificans His-MBP-ComGC (Geobacillus thermodenitrificans); test: SEC; remark: listed apart in the source
[5] = target: Geobacillus thermodenitrificans His-MBP-ComGD (Geobacillus thermodenitrificans); test: SEC
[6] = target: Geobacillus thermodenitrificans His-MBP-ComGD (Geobacillus thermodenitrificans); test: SEC; remark: listed apart in the source
[7] = target: Geobacillus thermodenitrificans His-MBP-ComGD (Geobacillus thermodenitrificans); test: SEC; remark: listed apart in the source
[8] = target: T2, BsComGC (Bacillus subtilis PY79, UniProt P25955 28-98); test: EMSA
T2 sequence: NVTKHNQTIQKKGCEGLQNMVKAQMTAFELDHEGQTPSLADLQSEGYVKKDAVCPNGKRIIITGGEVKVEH

[9] = target: T2, BsComGC; test: pull-down

Molecule: 40 bp dsDNA (EMSA)
Kd [1]: 20 µM

Molecule: 2000 bp dsDNA (BLI)
Kd [2]: 96 µM

stoichiometry N [3]: 2 | stoichiometry N [4]: 2
Molecule: Geobacillus thermodenitrificans His-MBP-ComGC (domain or fragment)

stoichiometry N [5]: 2 | stoichiometry N [6]: 2 | stoichiometry N [7]: 2
Molecule: Geobacillus thermodenitrificans His-MBP-ComGD (domain or fragment)

Molecule: TTTTTTTTTTTTTTTTTTTTTTCCCACAACAAGCCACCCG (ssDNA) [unstructured ssDNA (BLI, Fig. S3A)]
Kd [2]: 53 µM

Molecule: TTTTTTTTTTTTTTTTTTTTTTCCCACAACAAGCCACCCG (ssDNA) [40 nt ssDNA (EMSA, Fig. S3A)]
Kd [1]: ~13.6 µM | Kd [8]: ~100 µM

Molecule: AAAAAAAAAAAA (ssDNA) [12 nt polyA ssDNA]
binding result [9]: binds
